B1: NIH-CoVnb-112 (VHH)
VHH: DVQLQESGGGLVQPGGSLRLSCAASGLTLDYYAIGWFRQAPGKEREGVSCISSSDGSTYYADSVKGRFTTSRDNAKNTVYLQMNSLKPEDTAVYYCAAVPSTYYSGTYYYTCHPGGMDYWGKGTQVTVSS
B2: NIH-CoVnb-112 (VHH)
VHH: B1 VHH

Assays:
Assay in all cases: BLI
Settings in all cases: both partners purified
[1] = target: T1, recombinant SARS-CoV-2 RBD, Beta (B.1.351), K417N, E484K, N501Y (SARS-CoV-2, Beta (B.1.351), K417N | E484K | N501Y)
T1 construct: source: bought: ACRO Biosystems

[2] = target: T2, recombinant SARS-CoV-2 RBD, Delta (B.1.617.2), L452R, T478K (SARS-CoV-2, Delta (B.1.617.2), L452R | T478K)
T2 construct: also called Delta variant RBD; source: bought: ACRO Biosystems

[3] = target: T3, recombinant SARS-CoV-2 RBD, Gamma (P.1), K417T, E484K, N501Y (SARS-CoV-2, Gamma (P.1), K417T | E484K | N501Y)
T3 construct: source: bought: ACRO Biosystems

[4] = target: T4, recombinant SARS-CoV-2 RBD, Alpha (B.1.1.7), N501Y (SARS-CoV-2, Alpha (B.1.1.7) RBD N501Y, N501Y)
T4 construct: also called RBD_(N501Y); source: bought: ACRO Biosystems

[5] = target: T5, SARS-CoV-2 RBD Alpha (B.1.1.7) N501Y (SARS-CoV-2, Alpha (B.1.1.7) RBD N501Y, N501Y)
T5 construct: also called RBD N501Y; source: bought: ACRO Biosystems

[6] = target: T6, SARS-CoV-2 RBD Beta (B.1.351) (SARS-CoV-2, Beta (B.1.351), K417N | E484K | N501Y)
T6 construct: also called B.1.351/K417N, E484K, N501Y; source: bought: ACRO Biosystems

[7] = target: T7, SARS-CoV-2 RBD Delta (B.1.617.2) (SARS-CoV-2, Delta (B.1.617.2), L452R | T478K)
T7 construct: also called B.1.617.2/L452R, T478K; source: bought: ACRO Biosystems

[8] = target: T8, SARS-CoV-2 RBD Gamma (P.1) (SARS-CoV-2, Gamma (P.1), K417T | E484K | N501Y)
T8 construct: also called P.1/K417T, E484K, N501Y; source: bought: ACRO Biosystems

Binder | Kd [1] | Kd [2] | kon [2] | Kd [3] | Kd [4] | koff [5] | kon [5] | koff [6] | kon [6] | koff [7] | koff [8] | kon [8]
B1 | 4.28 nM | 1.66 nM | 461000 M⁻¹ s⁻¹ | 4.16 nM | 3 nM |  |  |  |  |  |  | 
B2 |  |  |  |  |  | 0.000428 s⁻¹ | 153000 M⁻¹ s⁻¹ | 0.000705 s⁻¹ | 201000 M⁻¹ s⁻¹ | 0.000609 s⁻¹ | 0.000822 s⁻¹ | 214000 M⁻¹ s⁻¹

From PMC8928829 (mAbs, 2022)
